One test concerns the target T1, mouse FcγRIV (mouse).
T1 construct: Bought soluble receptor; also called mFcgRIV; mFcgR IV
In words: SPR (Biacore), antibody captured on Protein L, mouse FcγR as analyte, pH 7.4, 25 C. On the technique in general: In SPR one partner is held on a chip, and binding of the other changes the refractive index at the surface.

The target of test [1] is T2, FcγRIIIa type V (human, UniProt P08637 17-208, limits assumed).
T2 construct: Soluble analyte in Biacore; also called FcγRIIIaV; FcγRIIIa(V)
In words: SPR (Biacore), antibody captured on chip, FcγR as analyte, method of Example 14.

The target in test [2] is T3, FcγRIIb (human, UniProt P31994 43-217, limits assumed).
T3 construct: Soluble analyte in Biacore; also called FcgRIIb; FcγIIB
T3 sequence: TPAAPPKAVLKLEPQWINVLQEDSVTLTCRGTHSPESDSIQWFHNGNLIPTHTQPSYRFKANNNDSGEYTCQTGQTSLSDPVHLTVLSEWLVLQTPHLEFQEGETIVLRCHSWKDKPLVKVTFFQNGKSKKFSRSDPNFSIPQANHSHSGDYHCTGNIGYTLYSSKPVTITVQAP
Described as above.

In test [3] the target is T4, FcγRIIa type H (human, UniProt P12318 36-217).
T4 construct: Soluble analyte in Biacore; also called FcγRIIaH; FcγRIIa(H)
T4 sequence: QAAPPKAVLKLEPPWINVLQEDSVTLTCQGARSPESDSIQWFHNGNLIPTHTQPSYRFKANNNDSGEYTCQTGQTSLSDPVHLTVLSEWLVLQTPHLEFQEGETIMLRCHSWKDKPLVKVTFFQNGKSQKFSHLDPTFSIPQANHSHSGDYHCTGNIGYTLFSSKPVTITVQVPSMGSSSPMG
The description is as above.

The target of test [4] is T5, human FcRn (soluble human FcRn complexed with beta2-microglobulin) (human, UniProt P61769 21-119).
T5 construct: also called hFcRn
In words: SPR (Biacore), pH 7.0, 25 C, antibody captured by Protein L, human FcRn as analyte.

Test [5] deals with T6, FcγRIIIa type V (human, UniProt P08637 17-208, limits assumed).
T6 construct: also called FcγRIIIaV; FcγRIIIa(V)
In words: SPR (Biacore), captured antibody, FcγR as analyte, method of Example 14.

Test [6] addresses T7, human FcRn (soluble human FcRn complexed with beta2-microglobulin) (human, UniProt P61769 21-119).
T7 construct: Soluble human FcRn complexed with beta2-microglobulin; also called hFcRn
In words: Biacore SPR, antibody captured on Protein L, human FcRn analyte, pH 7.0.

Test [7] addresses T3, FcγRIIb. In words: SPR (Biacore); ratio against the parent IL6R-B3/IL6R-L.
For test [8], the target named is T8, FcγRIIa type H (human, UniProt P12318 36-217).
T8 construct: also called FcγRIIaH; FcγRIIa(H)
T8 sequence: T4 sequence
In words: SPR (Biacore), captured antibody, FcγR as analyte, method of Example 14.

Test [9] concerns the target T9, FcγRIIb (human, UniProt P31994 43-217, limits assumed).
T9 construct: also called FcγIIB; FcgRIIb
T9 sequence: T3 sequence
In words: ratio of SPR KD values of this variant (FcγRIIaH over FcγRIIb).

Test [10] has as its target T9, FcγRIIb. In words: ratio of SPR KD values of this variant (FcγRIIaR over FcγRIIb).
The target in test [11] is T10, human FcγRIIb (human, UniProt P31994 43-217, limits assumed).
T10 construct: also called FcγIIB; hFcgRIIb
T10 sequence: T3 sequence
In words: ratio of this variant's SPR KD for FcγRIIaR to its KD for FcγRIIb.

For the next test, the target named is T11, human FcγRIIa type R (human, UniProt P12318 36-217).
T11 construct: also called FcγRIIaR; FcγRIIa(R)
T11 chain: T4 sequence with H133R
In words: SPR (Biacore), captured antibody, FcγR as analyte, 25 C.

Test [12] has as its target T10, human FcγRIIb. In words: ratio of this variant's SPR KD for FcγRIIaH to its KD for FcγRIIb.
The target of test [13] is T10, human FcγRIIb. In words: SPR KD for FcγRIIb of parent IL6R-B3/IL6R-L divided by that of this variant.

Numbering of substitutions follows the chain as printed. Names and notes keep the numbering of the source.

T1 sequence (A0A0B4J1G0 21-203): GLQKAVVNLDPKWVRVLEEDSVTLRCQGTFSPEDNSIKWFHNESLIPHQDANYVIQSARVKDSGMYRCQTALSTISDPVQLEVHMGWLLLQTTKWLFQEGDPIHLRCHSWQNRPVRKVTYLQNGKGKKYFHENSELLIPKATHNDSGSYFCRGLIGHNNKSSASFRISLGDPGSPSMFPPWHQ

B1: VH3/L(WT)-IgG1-F140 (antibody)
heavy: QVQLQESGPGLVKPSETLSLTCAVSGHSISHDHAWSWVRQPPGEGLEWIGFISYSGITNYNPSLQGRVTISRDNSKNTLYLQMNSLRAEDTAVYYCARSLARTTAMDYWGEGTLVTVSSASTKGPSVFPLAPSSKSTSGGTAALGCLVKDYFPEPVTVSWNSGALTSGVHTFPAVLQSSGLYSLSSVVTVPSSSLGTQTYICNVNHKPSNTKVDKKVEPKSCDKTHTCPPCPAPELLGGPKVFLFPPKPKDTLYISRTPEVTCVVVDVSHEDPEVKFNWYVDGVEVHNAKTKPREEQYNSTYRVVSVLTPLHQDWLNGKEYKCKVSNKALPAPIEKTISKAKGQPREPQVYTLPPSRDELTKNQVSLTCLVKGFYPSDIAVEWESNGQPENNYKTTPPVLDSDGSFFLYSKLTVDKSRWQQGNVFSCSVMHEALHYHYTQKSLSLSP
light: not shown
notes: copies: 2 + 2
Turning to B1, the “BINDING AMOUNT (RU)” value with mouse FcγRIV was 108 RU.

B2: IL6R-BP207/IL6R-L (antibody, human IgG1)
heavy: B1 heavy with E235D, P240D, K241S, Y254M, P310V, A332R, Y436N, K441E
light: DIQMTQSPSSLSASVGDRVTITCRASQDISSYLNWYQQKPGKAPKLLIYYTSRLHSGVPSRFSGSGSGTDFTFTISSLQPEDIATYYCQQGNTLPYTFGQGTKVEIK
notes: Anti-human IL-6 receptor IgG1 Fc variant
For orientation: Kd means the concentration at which binding is half-saturated. In the case of B2, the Kd worked out at 65 µM with FcγRIIIa type V [1] and 0.64 µM with FcγRIIb [2].

B3: IL6R-BP208/IL6R-L (antibody, human IgG1)
heavy: QVQLQESGPGLVKPSETLSLTCAVSGHSISHDHAWSWVRQPPGEGLEWIGFISYSGITNYNPSLQGRVTISRDNSKNTLYLQMNSLRAEDTAVYYCARSLARTTAMDYWGEGTLVTVSSASTKGPSVFPLAPSSKSTSGGTAALGCLVKDYFPEPVTVSWNSGALTSGVHTFPAVLQSSGLYSLSSVVTVPSSSLGTQTYICNVNHKPSNTKVDKKVEPKSCDKTHTCPPCPAPDLLGDDSVFLFPPKPKDTLMISRTPEVTCVVVDVSDEDGEVKFNWYVDGVEVHNAKTKPREEQYNSTYRVVSVLTVLHQDWLNGKEYKCKVSNKALPRPIEKTISKAKGQPREPQVYTLPPSRDELTKNQVSLTCLVKGFYPSDIAVEWESNGQPENNYKTTPPVLDSDGSFFLYSKLTVDKSRWQQGNVFSCSVMHEALHNHYTQESLSLSP
light: B2 light
notes: as for B2
Consider B3, for which the Kd with FcγRIIIa type V [1] worked out at 55 µM; with FcγRIIa type H [3] it was 8.3 µM.

B4: IgG1-F936 (antibody, name in EU numbering)
heavy: B1 heavy with G239R, P240D, K241S, T252V, P310V
light: not shown
As for B4, the Kd in test [4] turned out to be 0.32 µM.

B5: IL6R-BP147/IL6R-L (antibody, human IgG1)
heavy: B3 heavy with D235E, L236Y, D270H, G273P, K328A, R332K
light: B2 light
notes: EU numbering
In the test with FcγRIIIa type V [5], B5 gave a Kd of 35 µM.

B6: IgG1-F276 (antibody, name in EU numbering)
heavy: B1 heavy with K241S, D272F, E384A
light: not shown
notes: Fc variant of VH3-IgG1; copies: 2 + 2
Molecule B6 had a Kd in test [6] of 0.041 µM.

B7: IL6R-BP209/IL6R-L (antibody, human IgG1)
heavy: B3 heavy with D235E, K328A
light: B2 light
notes: as for B2
Consider B7, for which the results for the Kd with FcγRIIIa type V [1] and with FcγRIIb [2] were 41 µM and 5.1 µM, respectively. Besides, in the test with FcγRIIb [7], the “KD(IIb) of the parent polypeptide/KD(IIb) of the altered polypeptide” value (from here on “KD(IIb)”) amounted to 80.4 fold.

B8: IL6R-BP182/IL6R-L (antibody, human IgG1)
heavy: B3 heavy with D239G, D270H, Y298D, R332K
light: B2 light
notes: EU numbering
With B8, the Kd with FcγRIIa type H [8] was 2.6 µM; with FcγRIIIa type V [5], 68 µM.

B9: IL6R-BP205/IL6R-L (antibody, human IgG1)
heavy: B3 heavy with D239G, D270H, Y298D
light: B2 light
notes: as for B2
In the case of B9, the Kd is 65 µM with FcγRIIIa type V [1] and 26 µM with FcγRIIa type H [3].

B10: IL6R-BP152/IL6R-L (antibody, human IgG1)
heavy: B3 heavy with L236Y, D270H, G273P, Y298D, K328A
light: B2 light
notes: EU numbering
For the molecule B10, the “KD (IIaH)/KD (IIb)” value with FcγRIIb [9] stood at 136. Besides, in the test with FcγRIIb [10], the “KD (IIaR)/KD (IIb)” value was 19.5. Besides, binding with FcγRIIIa type V [5] was put at a Kd of 40 µM.

B11: IgG1-F271 (antibody, name in EU numbering)
heavy: B1 heavy with K241S, P310V, D378A, M430F
light: not shown
notes: as for B6
Molecule B11 registered a Kd in [6] of 0.69 µM.

B12: IgG1-F273 (antibody, name in EU numbering)
heavy: B1 heavy with K241S, P310V, E384A, M430F
light: not shown
notes: as for B6
In test [6], B12 had a Kd of 0.65 µM.

B13: IgG1-F919 (antibody, name in EU numbering)
heavy: B1 heavy with K241S, D282G, P310V, N386A, N391A
light: not shown
Take B13: in test [4], binding was put at a Kd of 0.33 µM.

B14: IgG1-F928 (antibody, name in EU numbering)
heavy: B1 heavy with K241S, T309Q, P310V, Q313A, Y438I
light: not shown
In test [4], B14 returned a Kd of 0.029 µM.

B15: IgG1-F941 (antibody, name in EU numbering)
heavy: B1 heavy with K241S, N288E, T309Q, P310V, Q313A, Y438V
light: not shown
As for B15, the Kd in [4] came to 0.012 µM.

B16: IgG1-F281 (antibody, name in EU numbering)
heavy: B1 heavy with K241S, E384A, M430F
light: not shown
notes: as for B6
B16 had a Kd in test [6] of 0.092 µM.

B17: IL6R-BP210/IL6R-L (antibody, human IgG1)
heavy: B3 heavy with D235E
light: B2 light
notes: as for B2
For the molecule B17, the affinity with FcγRIIb [2], expressed as Kd, was 39 µM.

B18: antibody with VH3-IgG1-F424 heavy chain and L(WT)-CK light chain (antibody)
heavy: B1 heavy with Y254M, P259A, M430L
light: not shown
notes: copies: 2 + 2
Regarding B18, the “BINDING AMOUNT (RU)” value with mouse FcγRIV was 138 RU.

B19: antibody with VH3-IgG1-F157 heavy chain and L(WT)-CK light chain (antibody)
heavy: B1 heavy with K241S, Y254M, P259A, M430L
light: not shown
notes: copies: 2 + 2
For the molecule B19, the “BINDING AMOUNT (RU)” value with mouse FcγRIV is 243 RU.

B20: IL6R-BP146/IL6R-L (antibody, human IgG1)
heavy: B3 heavy with D235E, L236Y, D270H, G273P, K328A, R332A
light: B2 light
notes: positions are EU numbering, not positions on the entry
For B20, the “KD (IIaH)/KD (IIb)” value with FcγRIIb [9] turned out to be 50. For the same molecule, the “KD (IIaR)/KD (IIb)” value with FcγRIIb [10] worked out at 9.3. Further, the Kd in the test with FcγRIIa type H [8] came out at 1.6 µM; with FcγRIIIa type V [5] it was 30 µM.

B21: IL6R-BF648/IL6R-L (antibody, human IgG1)
heavy: not shown
light: B2 light
notes: IL6R-B3 with P238D; copies: 2 + 2
With B21, the “KD (IIaR)/KD (IIb)” value with human FcγRIIb [11] is 13. Further, the affinity in the test with human FcγRIIa type R, expressed as Kd, was 1.5 µM. The “KD (IIaH)/KD (IIb)” value in the test with human FcγRIIb [12] stood at 33.9.

B22: IL6R-BP082/IL6R-L (antibody, human IgG1)
heavy: B3 heavy with D239G, D270H, G273P, R332K
light: B2 light
notes: copies: 2 + 2
Regarding B22, the “KD (IIaR)/KD (IIb)” value in the test with human FcγRIIb [11] is 22.5. In addition, in the test with human FcγRIIb [13], the “KD(IIb)” value worked out at 5.6. In the test with human FcγRIIa type R, the Kd was 1.2 µM. The “KD (IIaH)/KD (IIb)” value in the test with human FcγRIIb [12] turned out to be 69.

B23: IL6R-BP129/IL6R-L (antibody, human IgG1)
heavy: B3 heavy with D239G, D270H, G273P, Y298D, R332K
light: B2 light
notes: copies: 2 + 2
In the case of B23, the “KD (IIaR)/KD (IIb)” value with human FcγRIIb [11] was 29.3. Moreover, the “KD(IIb)” value with human FcγRIIb [13] came to 8. The same molecule showed a Kd in the test with human FcγRIIa type R of 1.5 µM. Also, the “KD (IIaH)/KD (IIb)” value in the test with human FcγRIIb [12] came out at 77.5.

The values are drawn from patent US20140105889A1 (published 2014).
